The labels stand for the following.
B1: Junctophilin-2 (Mus musculus), Q9ET78 (parent)
chain: MSGGRFDFDDGGAYCGGWEGGKAHGHGLCTGPKGQGEYSGSWNFGFEVAGVYTWPSGNTFEGYWSQGKRHGLGIETKGRWLYKGEWTHGFKGRYGIRQSTNSGAKYEGTWNNGLQDGYGTETYADGGTYQGQFTNGMRHGYGVRQSVPYGMAVVVRSPLRTSLSSLRSEHSNGTVAPDSPAADGPMLPSPPVPRGGFALTLLATAEAARPQGLFTRGTLLGRLRRSESRTSLGSQRSRLSFLKSELSSGASDAASTGSLAEGAEGPDDAAAPFDADIDATTTETYMGEWKNDKRSGFGVSERSSGLRYEGEWLDNLRHGYGRTTLPDGHREEGKYRHNVLVKGTKRRVLPLKSSKVRQKVEHGVEGAQRAAAIARQKAEIAASRTSHAKAKAEAAEQAALAANQESNIARTLAKELAPDFYQPGPEYQKRRLLQEILENSESLLEPPERGLGTGLPERPRESPQLHERETPQPEGGPPSPAGTPPQPKRPRPGASKDGLLSPGSWNGEPGGEGSRPATPSDGAGRRSPARPASEHMAIEALQPPPAPSQEPEVAMYRGYHSYAVRTGPPEPPPLEDEQEPEPEPEPEVRRSDSAPPSPVSATVPEEEPPAPRSPVPAKQATLEPKPIVPKAEPKAKARKTEARGLSKAGAKKKGRKEVAQAKEAEVEVEEVPNTVLICMVILLNIGLAILFVHLLT
partner: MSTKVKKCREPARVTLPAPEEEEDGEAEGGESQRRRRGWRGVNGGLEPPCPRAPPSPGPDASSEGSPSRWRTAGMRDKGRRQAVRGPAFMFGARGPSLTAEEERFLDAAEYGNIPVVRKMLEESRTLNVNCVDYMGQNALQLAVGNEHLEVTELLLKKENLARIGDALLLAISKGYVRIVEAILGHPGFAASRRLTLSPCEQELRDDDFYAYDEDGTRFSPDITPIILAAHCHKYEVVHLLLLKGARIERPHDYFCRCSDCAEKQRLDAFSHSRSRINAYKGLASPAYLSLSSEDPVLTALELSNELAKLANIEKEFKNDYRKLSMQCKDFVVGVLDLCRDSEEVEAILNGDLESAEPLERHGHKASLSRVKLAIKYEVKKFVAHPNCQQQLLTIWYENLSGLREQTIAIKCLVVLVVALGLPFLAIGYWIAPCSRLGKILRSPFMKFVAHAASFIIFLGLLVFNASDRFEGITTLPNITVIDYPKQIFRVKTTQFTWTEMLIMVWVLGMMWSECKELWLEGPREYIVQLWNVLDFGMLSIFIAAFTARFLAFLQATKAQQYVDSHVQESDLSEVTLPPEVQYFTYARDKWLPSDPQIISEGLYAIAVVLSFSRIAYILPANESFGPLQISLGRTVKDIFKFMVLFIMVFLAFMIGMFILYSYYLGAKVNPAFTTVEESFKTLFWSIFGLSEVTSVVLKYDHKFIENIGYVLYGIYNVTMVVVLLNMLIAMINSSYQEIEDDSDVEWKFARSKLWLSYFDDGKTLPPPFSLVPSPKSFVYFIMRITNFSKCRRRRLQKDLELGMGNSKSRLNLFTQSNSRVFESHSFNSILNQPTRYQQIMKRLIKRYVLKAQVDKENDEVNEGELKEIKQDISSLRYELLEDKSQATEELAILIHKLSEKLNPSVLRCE

The variants in the assay derive from B1. As to conditions: with trpc3_mouse Trpc3, Q9QZC1.
With S165F, the “effect of a mutation on the interaction” value was “decreasing interaction”.

These data come from IntAct's records for PubMed 20095964.
